From US20210079074A1 (Alector, published 2021) come the findings set out here.

Experiment [1] addresses T1, huMS4A4A-ECL2 free-peptide (human).
T1 construct: synthetic, free or BSA-conjugated, coated on the plate; also called human MS4A4A ECL2 peptide; huMS4A4A-ELC2 free-peptide
T1 peptide: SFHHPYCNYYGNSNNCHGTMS
The experiment is described as follows: peptide ELISA, murine antibody. The method, then:
Coated plates were then blocked with ELISA diluent (PBS+0.5% BSA+0.05% Tween20) for 1-hour, washed 3×300 μL in PBST (PBS+0.05% Tween20, Thermo Cat#28352), and then the antibodies were added to the plate ([…]). After 30 mins incubation (room temperature, with shaking), the plates were washed 3×300 μL in PBST. […] After a final set of washes (3×300 μL in PBST), 50 μL of TMB substrate (BioFx Cat#TMBW-1000-01) was added and the reaction was then quenched after 5-10 mins with 50 μL of stop solution (BioFx Cat#BSTP-1000-01). The quenched reaction wells were detected for absorbance at […] with a BioTek Synergy Microplate Reader using GENS 2.04 software.
In general terms: ELISA stands for enzyme-linked immunosorbent assay.

The target of experiment [2] is T2, recombinant MS4A4A soluble polypeptide JS1.
T2 construct: also called JS1.His; loop grafted antigen
The experiment is described as follows: ELISA, biotin-antigen on streptavidin plate. The method, then: (§1) Anti-MS4A4A antibodies of the present disclosure were tested for their ability to bind to the different recombinant MS4A4A soluble polypeptides, as described in Example 2, as follows. Nucleic acid encoding the VH and VL domains of humanized anti-MS4A4A antibodies of the present disclosure were cloned into pcDNA3.4 vector which contains either the human IgG1 heavy chain constant domain or human kappa constant domain. The humanized anti-MS4A4A antibodies were expressed in Expi293 cells and were purified by Mab select antibody purification resin (GE Healthcare Life Science, cat#17519902) following the manufacture's protocol. ELISA was performed to measure binding of anti-MS4A4A antibodies of the present disclosure the recombinant MS4A4A soluble polypeptides. 1 μg/ml biotinylated antigens were preincubated on the streptavidin-coated ELISA plates (Thermo Scientific, cat#PI15120) for 1 hour. Plates were washed 3 times, followed by the addition of antibodies (1 μg/ml, 0.33 μg/ml, and 0.11 μg/ml antibodies. Plates were incubated at room temperature with shaking for 1 hr, washed 3 times, then 1/2500 dilution of HRP conjugates goat anti human kappa antibodies added (SigmaAldrich cat#. A7164-1ML).

Experiment [3] deals with T3, negative control polypeptide JS4.
T3 construct: negative control for JS1; also called JS4.His
The experiment is described as follows: ELISA, biotin-antigen on streptavidin plate. As to the method:
as §1

The target in experiment [4] is T4, recombinant MS4A4A soluble polypeptide JS6.
T4 construct: also called JS6.His
Nature of the experiment: ELISA, biotin-antigen on streptavidin plate. As to the method:
as §1

Experiment [5] has as its target T5, recombinant MS4A4A soluble polypeptide JS5.
T5 construct: also called JS5.His
The experiment is described as follows: ELISA, biotin-antigen on streptavidin plate. As to the method: as §1

Experiment [6] has as its target T6, negative control polypeptide JS10.
T6 construct: negative control for JS5 and JS6; also called JS10.His
The experiment is described as follows: ELISA, biotin-antigen on streptavidin plate. As to the method: as §1

The target of experiment [7] is T5, recombinant MS4A4A soluble polypeptide …. The experiment is described as follows: ELISA, 0.33 ug/ml antibody. As to the method:
as §1

Experiment [8] has the same target. The experiment is described as follows: ELISA, 0.11 ug/ml antibody. The method, then:
as §1

Experiment [9] has as its target T7, human MS4A4A (human, UniProt Q96JQ5 1-239). The experiment is described as follows: FACS, U937-huMS4A4A, 5 ug/ml. The gist of the method:
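U937 cells expressing human MS4A4A were viability-stained, then 2×10^4 cells/well were incubated with mouse hybridoma IgG or recombinant human IgG1 Fc chimera in PBS/2% FBS/1 mM EDTA. A secondary antibody was then applied on ice for 15 min. Binding was read by flow cytometry as median fluorescence intensity.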
(In general: A flow cytometer gives signals particle by particle.)

The target in experiment [10] is T7, human MS4A4A. The experiment is described as follows: FACS, U937-huMS4A4A, 5 ug/ml. The method, then: Anti-MS4A4A antibodies tested were either mouse IgGs purified from hybridoma supernatant or human IgG1 Fc chimeras produced recombinantly in Expi293 cells. Affinity binding to cells was determined as follows. Briefly, cells were harvested, washed, and labeled with Aqua Live/Dead for viability discrimination. After a wash with PBS, 2×10\hat{ }4 cells were aliquoted per well in 96-well U-bottom plates and incubated with 50 μL of purified anti-MS4A4A antibody at various concentrations (3× dilutions starting at 10 μg/mL) in FACS buffer (PBS+2% FBS+1 mM EDTA). After this primary incubation, the supernatant was removed via centrifugation, washed 2× with 150 μL of ice-cold FACS buffer, and incubated with the appropriate secondary antibody on ice for 15 minutes. Following the secondary antibody incubation, the cells were again washed 2× with ice-cold FACS buffer and resuspended in a final volume of 200 μL of FACS buffer. Flow cytometry analysis was performed on a FACSCanto system (BD Biosciences). Binding data was expressed as Median Fluorescent Intensity (MFI).
These experiments were performed using anti-MS4A4A antibodies at a concentration of 5 μg/ml and were assayed for cell binding by flow cytometry.
This is another data set of the same source.

Experiment [11] deals with T2, recombinant MS4A4A soluble polypeptide …. Nature of the experiment: ELISA, 1 ug/ml antibody. An outline of the steps:
(§2)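 Biotinylated antigen 1 μg/ml captured on streptavidin, 1 h; wash x3. Humanized IgG1/kappa Ab (Expi293) 1, 0.33, 0.11 μg/ml, 1 hr RT shaking; wash x3. HRP anti-human kappa 1/2500.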

The target of experiment [12] is T5, recombinant MS4A4A soluble polypeptide …. Nature of the experiment: ELISA, 1 ug/ml antibody. The gist of the method: as §2
Experiment [13] has as its target T7, human MS4A4A. The experiment is described as follows: cell-based or functional assay.
In experiment [14] the target is T7, human MS4A4A. The experiment is described as follows: cell-based or functional assay. This is another data set of the same source.
Experiment [15] has as its target T8, FcγRIIa receptor (H131 variant) (UniProt P12318 34-317, limits assumed).
T8 sequence (looked up): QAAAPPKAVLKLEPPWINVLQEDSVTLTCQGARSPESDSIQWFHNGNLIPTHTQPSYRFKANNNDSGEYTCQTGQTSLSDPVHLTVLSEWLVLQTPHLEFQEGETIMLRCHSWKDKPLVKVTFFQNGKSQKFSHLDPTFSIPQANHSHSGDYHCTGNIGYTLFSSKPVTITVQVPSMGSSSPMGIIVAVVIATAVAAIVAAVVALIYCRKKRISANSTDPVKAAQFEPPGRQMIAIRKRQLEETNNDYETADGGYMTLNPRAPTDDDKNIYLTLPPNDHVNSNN
Nature of the experiment: cell-based or functional assay.

Experiment [16] addresses FcγRIIIa receptor (V158 variant) (UniProt P08637 17-254). Nature of the experiment: cell-based or functional assay.

Like-named read-outs stand apart in the source and are kept apart here.

Chain of FcγRIIIa receptor (V158 variant) (P08637 other isoform, or with tags, fused parts or gaps mutant limits assumed): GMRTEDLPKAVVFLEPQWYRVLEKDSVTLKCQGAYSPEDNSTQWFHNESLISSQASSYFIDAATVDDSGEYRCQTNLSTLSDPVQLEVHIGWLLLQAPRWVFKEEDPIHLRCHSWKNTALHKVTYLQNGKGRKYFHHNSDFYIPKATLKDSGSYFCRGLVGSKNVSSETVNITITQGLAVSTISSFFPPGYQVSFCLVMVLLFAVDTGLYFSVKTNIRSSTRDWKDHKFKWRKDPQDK

B1: anti-MS4A4A antibody 4A-214 (antibody, V domains shown)
VH: EVKLEESGGGLVQPGRSMKLSCVASGFTFSNYWMNWVRQSPEKGLEWVAEIRLKSNNYATHYAESVKGRFTISRDDSKSSVYLQMNNLRAEDTGIYYCSSMIIVDYWGQGTTVTVSS
VL: DIVLTQSPASLTVSLGQRATISCRASQSVSSSTYSYLHWYQQRPGQPPKLLIKYASNLESGVPARFSGSGSGTVFTLNIHPVEEEDTATYYCQHSWEIPLTFGAGTKLEMK
notes: murine; mFc = murine Fc; also called 4A-214.mFc
For the molecule B1, the binding result in experiment [1] is “binds”. Besides, the “ELISA OD” value in [2] was 1.74; in experiment [3], 0.11; in [4], 1.71; in [5], 1.62; in [6], 0.086.

B2: anti-MS4A4A antibody 4A-202 (antibody, V domains shown)
VH: QVQLQQSGAELARPGASVKLSCKASGYTFTNYWMQWVKQRPGQGLEWIGATHPGHGDTRYTQKFKGKATLSADKSSSTAYMQLSNLASEDSAVYYCAREEVYYGFRSYWYFDVWGRGTLVTVSS
VL: not shown
notes: murine parental; tested as mouse IgG or as human IgG1 Fc chimera (hFc), told under assay
Regarding B2, the binding result in experiment [1] is listed as “binds”. Besides, the “ELISA OD” value was found to be 0.111 in [7]; 0.079 in experiment [8]; 1.16 in [2]; 0.111 in [3]; 1.23 in experiment [4]; 1.22 in [5]. In addition, the “ELISA OD” value came to 0.084 in [6] and 0.188 in experiment [12]. Besides, the MFI in [9] turned out to be 216; in experiment [10], 31700. In [11], the OD450 worked out at 0.141.

B3: anti-MS4A4A antibody 4A-25 (antibody, V domains shown)
VH: QVTLKESGPGILQPSQTLSLTCSFSGFSLRTSDMGVGWVRQPSGEGLEWLADIWWDDNKYYNPSLKSRLTISKDTSSNQVFLKITSVDTADTATYYCARRANYGNLFDYWGQGTAVTVSS
VL: DIVMTQSLKFMSTSVGDRVSITCKASQNVRSAVAWYQQKPGQSPKVLIYWASNRHTGVPDRFTGSGSGTDFTLTISNVQSEDLADYFCLQHWNYLTFGSGTKLEIK
notes: murine parental; mFc = murine Fc; also called 4A-25.mFc
For B3, the binding result in experiment [1] was “binds”. Further, the “ELISA OD” value in [2] was 1.38; in experiment [3] it was 0.091; in experiment [4], 1.26; in experiment [5], 1.12; in [6], 0.063. For the same molecule, in experiment [9], the MFI was 648.

B4: anti-MS4A4A antibody 4A-450 NSLF huIgG1 (antibody, V domains shown)
VH: QVQLVQSGSELKKPGASVKVSCKASGYAFTSYGLSWVRQAPGQGLEWMGWINTYSGVPTYAQGFTGRFVFSLDTSVSTAYLQISSLKAEDTAVYYCARTMADYWGQGTLVTVSS
VL: DVVMTQSPLSLPVTLGQPASISCKSSRSLLYSAGKTYLSWFQQRPGQSPRRLIYLVSKLDSGVPDRFSGSGSGTDFTLKISRVEAEDVGVYYCWQGIDFHQTFGGGTKVEIKR
As to B4, the “EC50 of the increase of sTREM2, primary human macrophages” value in experiment [13] stood at 0.069 µg/mL. The “EC50 of the increase of mTREM2, primary human macrophages” value in experiment [14] stood at 0.039 µg/mL.

B5: anti-MS4A4A antibody 4A-313 NSLF huIgG1 (antibody)
heavy: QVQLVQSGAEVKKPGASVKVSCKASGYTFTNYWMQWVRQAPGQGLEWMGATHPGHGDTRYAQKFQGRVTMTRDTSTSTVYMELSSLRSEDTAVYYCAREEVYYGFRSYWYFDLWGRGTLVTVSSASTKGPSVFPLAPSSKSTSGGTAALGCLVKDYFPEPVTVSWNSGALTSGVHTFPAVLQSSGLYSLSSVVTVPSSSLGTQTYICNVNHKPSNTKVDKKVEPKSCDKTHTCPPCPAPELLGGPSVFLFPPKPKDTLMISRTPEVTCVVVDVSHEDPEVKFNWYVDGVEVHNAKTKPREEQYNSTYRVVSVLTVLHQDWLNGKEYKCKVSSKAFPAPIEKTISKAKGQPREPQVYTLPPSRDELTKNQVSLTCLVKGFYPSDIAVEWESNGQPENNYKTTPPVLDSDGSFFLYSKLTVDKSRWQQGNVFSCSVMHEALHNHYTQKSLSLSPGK
light: EIVLTQSPATLSLSPGERATLSCRASESVDNYGVSRMNWYQQKPGQAPRLLIYGASNQGSGIPARFSGSGSGTDFTLTISSLEPEDFAVYYCQQSKEVPPTFGGGTKVEIKRTVAAPSVFIFPPSDEQLKSGTASVVCLLNNFYPREAKVQWKVDNALQSGNSQESVTEQDSKDSTYSLSSTLTLSKADYEKHKVYACEVTHQGLSSPVTKSFNRGEC
On to B5, for which, in experiment [13], the “EC50 of the increase of sTREM2, primary human macrophages” value turned out to be 0.025 µg/mL. For the same molecule, in experiment [15], the “luminescence, ADCP reporter, 3.048316 ng/mL” value is 42; the “luminescence, ADCP reporter, 9.144947 ng/mL” value was 45; the “luminescence, ADCP reporter, 27.43484 ng/mL” value amounted to 39; the “luminescence, ADCP reporter, 82.30453 ng/mL” value is 58. Moreover, in [15], the “luminescence, ADCP reporter, 246.9136 ng/mL” value was determined as 51; the “luminescence, ADCP reporter, 740.7407 ng/mL” value amounted to 61; the “luminescence, ADCP reporter, 2,222.222 ng/mL” value stood at 55; the “luminescence, ADCP reporter, 6,666.667 ng/mL” value stood at 227. Further, the “luminescence, ADCP reporter, 20,000 ng/mL” value in experiment [15] amounted to 250. The “EC50 of the increase of mTREM2, primary human macrophages” value in [14] was found to be 0.028 µg/mL. In addition, in [16], the “luminescence, ADCC reporter, 3.048316 ng/mL” value came to 324; the “luminescence, ADCC reporter, 9.144947 ng/mL” value was 356; the “luminescence, ADCC reporter, 27.43484 ng/mL” value amounted to 347; the “luminescence, ADCC reporter, 82.30453 ng/mL” value worked out at 360. Further, in experiment [16], the “luminescence, ADCC reporter, 246.9136 ng/mL” value worked out at 332; the “luminescence, ADCC reporter, 740.7407 ng/mL” value came out at 363; the “luminescence, ADCC reporter, 2,222.222 ng/mL” value is 431; the “luminescence, ADCC reporter, 6,666.667 ng/mL” value was 415. In [16], the “luminescence, ADCC reporter, 20,000 ng/mL” value is 442.

B6: anti-MS4A4A antibody 4A-18 (antibody, V domains shown)
VH: QVQLQQPGTELVKPGASVKLSCKASGYTFTSYWIHWVKQRPGQGLEWIGNINPTNGGTNYNERFKSKATLTVDKSSSTAYMQLSSLTSEDSAVYYCARAYYYGSSLFAYWGQGTLVTVSS
VL: DIVMTQSQKFMSTTVGDRVSITCKASQNVGTAVAWSQQKPGQSPKLLIYSASYRHTGVPDRFTGSGSGTDFTLTITNMQSEDLADYFCQQYSTYPWTFGGGTKLEIK
notes: murine parental; tested as mouse IgG1 or as human IgG1 Fc chimera (hFc), told under assay; also called 4A-18.hFc
Regarding B6, the “ELISA OD” value in experiment [2] was 0.146; in [3] it was 0.098; in [4] it was 0.105; in experiment [5], 0.099; in [6], 0.092. In experiment [9], this molecule registered an MFI of 382.
